This is an account of results in article PMC11078399.

The target in this experiment is T1, Fzo1 (yeast mitofusin), wild type (S. cerevisiae) (UniProt P38297).
T1 sequence: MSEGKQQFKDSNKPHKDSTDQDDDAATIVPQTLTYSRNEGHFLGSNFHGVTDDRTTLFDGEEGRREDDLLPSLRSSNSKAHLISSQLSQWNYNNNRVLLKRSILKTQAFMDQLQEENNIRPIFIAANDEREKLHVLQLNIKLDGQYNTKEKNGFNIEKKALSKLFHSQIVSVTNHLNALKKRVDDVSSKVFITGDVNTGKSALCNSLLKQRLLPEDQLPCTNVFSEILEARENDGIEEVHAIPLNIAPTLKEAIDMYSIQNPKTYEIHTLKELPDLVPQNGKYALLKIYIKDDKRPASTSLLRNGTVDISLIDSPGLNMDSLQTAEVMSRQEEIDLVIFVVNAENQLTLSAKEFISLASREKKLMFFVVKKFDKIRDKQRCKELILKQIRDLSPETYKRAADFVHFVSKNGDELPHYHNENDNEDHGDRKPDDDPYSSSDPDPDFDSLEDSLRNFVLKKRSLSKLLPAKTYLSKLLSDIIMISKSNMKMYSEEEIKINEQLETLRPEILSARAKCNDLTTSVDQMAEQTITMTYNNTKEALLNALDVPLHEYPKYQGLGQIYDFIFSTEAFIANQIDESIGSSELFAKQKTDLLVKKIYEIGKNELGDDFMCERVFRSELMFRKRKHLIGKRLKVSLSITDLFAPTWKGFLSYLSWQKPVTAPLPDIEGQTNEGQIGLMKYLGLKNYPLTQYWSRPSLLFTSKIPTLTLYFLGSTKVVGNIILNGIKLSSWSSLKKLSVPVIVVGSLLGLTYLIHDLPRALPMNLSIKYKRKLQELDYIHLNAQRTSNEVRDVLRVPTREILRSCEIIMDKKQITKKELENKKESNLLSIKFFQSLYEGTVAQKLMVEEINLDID

B1: Fzo1 S201N (GTPase domain mutant) (natural protein)
chain: MSEGKQQFKDSNKPHKDSTDQDDDAATIVPQTLTYSRNEGHFLGSNFHGVTDDRTTLFDGEEGRREDDLLPSLRSSNSKAHLISSQLSQWNYNNNRVLLKRSILKTQAFMDQLQEENNIRPIFIAANDEREKLHVLQLNIKLDGQYNTKEKNGFNIEKKALSKLFHSQIVSVTNHLNALKKRVDDVSSKVFITGDVNTGKNALCNSLLKQRLLPEDQLPCTNVFSEILEARENDGIEEVHAIPLNIAPTLKEAIDMYSIQNPKTYEIHTLKELPDLVPQNGKYALLKIYIKDDKRPASTSLLRNGTVDISLIDSPGLNMDSLQTAEVMSRQEEIDLVIFVVNAENQLTLSAKEFISLASREKKLMFFVVKKFDKIRDKQRCKELILKQIRDLSPETYKRAADFVHFVSKNGDELPHYHNENDNEDHGDRKPDDDPYSSSDPDPDFDSLEDSLRNFVLKKRSLSKLLPAKTYLSKLLSDIIMISKSNMKMYSEEEIKINEQLETLRPEILSARAKCNDLTTSVDQMAEQTITMTYNNTKEALLNALDVPLHEYPKYQGLGQIYDFIFSTEAFIANQIDESIGSSELFAKQKTDLLVKKIYEIGKNELGDDFMCERVFRSELMFRKRKHLIGKRLKVSLSITDLFAPTWKGFLSYLSWQKPVTAPLPDIEGQTNEGQIGLMKYLGLKNYPLTQYWSRPSLLFTSKIPTLTLYFLGSTKVVGNIILNGIKLSSWSSLKKLSVPVIVVGSLLGLTYLIHDLPRALPMNLSIKYKRKLQELDYIHLNAQRTSNEVRDVLRVPTREILRSCEIIMDKKQITKKELENKKESNLLSIKFFQSLYEGTVAQKLMVEEINLDID
The molecule B1 gave an ex vivo PerMit contact assay with mitochondria from pex34Δ cells: decrease of specific mitochondrial attachment to peroxisome beads with FZO1 S201N against WT FZO1 mitochondria of 17%.
